Reference: the DeepSol protein solubility set

Experiment: soluble on expression in E. coli; label from the status in PepcDB or PDB records

Soluble on expression in E. coli, not soluble:
MGSDKIHHHHHHLAKNNPISIPVSELRLGLTVKLPLSWTEHPFLINRIELKEQAQIEMIRGLKVQHVLVLAGAELLDEDVPKEEVPIEDDGFDEDMPERDVKREARVAIRKSQKRFLDCVNDSRSLVGKLGSDPEGAYRLSATLVEQMLEHLFEQEAAYLALVSAGEQGASVTQHGISVAVLSLMIAKSMDMPKKDMRDIALGALLHDIGKLRVPDNIRRKRGPLTTQEINFMNQHPNYGHEMLSRSGLFPEEVLHIIRHHHEFIDGTGFPGGLNGKKIPRTTQIVTLANDFEDQMTSHSIASPQVALGYLFKHRVGKHDEALIATLVKVLRHLSARYSGASHRRFFGKGDDDHPGSQAASGVGLQRRRRRPRPQNLDE
MGSDKIHHHHHHLEELDQMRAVFGTRPWREPTDTPAVISVSNFKGGVGKSTVALHLAQHFAIHGYRVLFIDCDSQASSTMMFGYRPDVDLTEDDTLYGHFHNPELLGVRSIIRKTHFFGLDLIPANLKLYNLEYEIAGYLAQNQNFDIIDLIAEAIDTVVDDYDVVVMDPPPALGMVSMAVLQAANAMVIPVPPSVIDFASTVSFIDMARTTMKQLEQIAGRVKPAYNFIRLVGSRVDESKSMHREILSMMRQVFGGSMATSVLKTSAEIDNASSRMKTVFELDRPVTSHEVHNRCMKHLSDVCREIETDVLRTWASRAGEAV
MGSDKIHHHHHHLEQQAIVANNLANASTTGFRAQLATFRAVPMSFGDGSSINDNTTRTFVLSSTPGADYTPGPIQQTGNPLDVAIQGPGWLAVQTADGGEAYTRAGNLHIDENGQLVNATNQVVLGNGGPVSVPPGAEITIGKDGTVSALTPGDPPTAVVTVDQLKLVNPDPQTMTRGDDGLFRTGDGNPADADPTVTLAPASLEGSNVNPVSAMVSMITNARQFQMQTKLLESADKNDQSANQLLSFS
MGSDKIHHHHHHLFTSLVKQAEEMGLLDLSSVAIDATKVEAYEKSVPRKNIIQNGNAADWGIKSDTNGNPIKWFGYKLHIGTDVRSGLPIAMKVTPANYSDSSVALELVEKCCANTQSKIVYFLMDAGYDHREIYSVIRDKYHAQAIIALNKRGAKQPPEGFDWDGTPICSARYRMVYWGSYQGVNKFRCPHIMGKCDCPFGSAWCSDSNYGMVVKTKVKDDPRLFSSPHRGSANWQKQYNLRTYSERCFSRFKENLGLEDGLNVRKITKVETHAYLCAITMIAAVIAINQDSSTRSSAA
MGSDKIHHHHHHLGFILDKSGLIPPSIDFPELIKAGREQLHRETDYEQEARHLDMFFKLMAGDKCFEVPRINQEFTTDKTLAMEFKEGVTIDQIVSANYNVKNKAVLNLIDLFFRELFEFNLIQSDPNYANFLFDEKNGKIILLDFGATIPVSSDTLAKFKALFNETLGQNKKSVENAMYQLGILDKGLPSHILNELTDIYWDSTEPIRKNKMFDFGNSNILERMQELSSEIIVHRKKIKIPPFDILSIQRKIGGIFLLARRFEAKINLNKIFEK
MGSDKIHHHHHHLILNWPQSDSEHLMVSSEQMQNIEKEMFSMGMPVEALMEKVGIGISSWILDRHGLIENGAIVLVGPGHNGGDGLVVARELYMAGVDISIWCPFPLKKQLTQKHFHYAMQIGIENLERKPDSNSDLLWIEALFGLGQSRIISDEIIRLLNSKKTFSPEKLISIDVPAGLDSDNGNIVSNTSCKASSSLTLGLFKSGLIQDSAIDYVGNLERVDIGIPDKILAGFPETQPLRISFSDLSTFVWPMLSKSKSKYQRGRVLVIAGSEKYRGAASLALNGALASGVGSVSAFLPNSVSSALWITHPEVLLLGDLTAFQDGSSDFSKVLNEVDLNRFDSILLGPGLGIADEKDCFGSDLQDFKGLLVLDADAINRLSITSKGWEWLNDREGPTWLTPHLEEFKRLFPLIDCSNPLKAGIEAAKTCSSSVLLKCAHSVISDPEGKTWQIGQVNSSVARTGLGDVLAGFVSGMGASGLASDKKLDTSLLAASALMHAYAGAFSIKGSTASTICTFLGELIKKEST
MGSDKIHHHHHHLIPKIIHYCWFGNSELPDIVKDCISSWKKYCPEYEIKRWDESNYDVSKNAYTRAAYKNKKWAFLTDYVRLDVLYNEGGVYMDTDVKLIRSLDPLIDKGPFMSFEKRGRVNTGVGFACEAGNPIVKENKDYYENNLFVDENGNFEPEICVKITTKILIKHGLNYTENVVQKVDGLIVYSSDYFSPKKLGTEKITLTSNTYGIHLFASSWYKGSKIYKKMKYHLIPLKEFIKYKILSKKLYE
MGSDKIHHHHHHLKKITNFRSLGGYQNAHGQMVKDGLIFRSGQLFELEDDQSHYLGQTLGIKHIVDMRSDDERTEFPDTVWEGADYAVLDILKDATANNASLGRMITEKGNVHENMLATYEQLALSDSAKTGYRQFIQGLLRPNEPTIFHCFAGKDRTGVGAALILKILDVSEQDIMADYLQTNAERTVANEEILAGLKERGFTDQQLKSIGEALKVDADYLRRYFQVIDQQFGPFQQYLREGLKLSAGEIAQFRDLYLQK
MGSDKIHHHHHHLKVIAIGDNVVDLYPADKQMYLGGHAANTAVFAAELGLQAAYIGTFGNDARGDFARRMLVERGVDVQHSLQYVGRNAFTTITGKDGARRKVVGEPPQELRLDPEDIAYINSFDLVYLNSESHADAFLQAITARKVYDFSILDDDKLFKKIAPQIDLAYLSGKARSDDDVEALMRRVAAAGCDRIVCSRGLRGSAALVDGMMSWQQALGVKAVDSLGAGDAYITSFAATLYSSSKPTLDAKVSESLSHAAKFASAQVLLPGSFGHGAPLIS
MGSDKIHHHHHHLNQPLTPQPIKTMTDKRQAILDTALALFVSQGFHGTSTASIAKQAGVATGTLFHHFPSKEALMESLFLTIKQQFADTLLLNTHKGSDLKLNALQLWQSAIDWSLDNPVKQLFFQQYSMSPMIAAKVRDQAMNSILGFISELIKQGQMEGLIAHYPLELMLENCHGQYLAATRFFIDNPHLGTNTRYRDASFELFWKAMQAD
MGSDKIHHHHHHLRILNTAATGVRAQQTALDVLGNNMSNVNTPGYKAQRVNFAEALAAEMRPAEREFNGQPVGERIDVGAGVIYPTIDTDYRQGIIRETENPFDLAIDGEGFFPVRTANGESRYTRVGNFELDSQGKLVNSDGYILEVKIPADAMDLYVDETGNITGFIDDEERVLGRVVVNDPEGEGYPVGPIDMDELGRPLDWNGDILPTAFAVPEGAEDVQISTEGILSATIDGSRQTLGQINIITFANPEGLVRDGDNLYFAPDAAGVTGDELVGTPGSQVEERTLGKLKTQSLEQSNVNLASAMTEMIQVQRAYQLNARMITNGDQMWSMANSLRR
MGSDKIHHHHHHLSGCVSLPPPAPIVHQPMSARAALPAPPPGNGAVYQDANQYHSLFIDRRARQIGDTLVILLTERTNASKRSNSSANKNGDVSFGIPPIVFGVPITKKIDLGASSSNDFAGKGEAASANNFSGTITVTVVDVLPNSYLVVSGEKQLAMTQGSEYIRFSGVVRPETVISNTVSSIQVADARIEYKANGYIDEAQTMGWLSRFFLTVAPF
MGSDKIHHHHHHLVGISHDTDQRILEQAMNMIRENGEDQLSLRKLARAIGLTTGAFYKHFATKDALLRAVTQLLSQREEAEMAQVLGQITDPEEKLLVMAAEILERFEADPHLMHFLFFNPAARDVLKVEPGQFGFYDQVIQLIKDVLRKRGITIDPQILFIQLWSFIQGYGLLIDSGITSYDPNLVRKTLKDLLEVSND
MGSDKIHHHHHHLYRIFRPIARFIVWVLNGHLHVHHKERLPEGTYILVAPHRNWWEPILFALAASPTEFMFMTKQELFKNPVLRWILNNAHAFPVNREHPSPSVIKIPVRGLKSEGLSLIMFPSGTRHSASLKSGALVIARMSGRPLLPAVYQGPLTFKGVLQRKGIEINFGNPIVIDRKTKLTPETEAAYNQQLEDAWKQIDQELDPDFHYEAK
MGSDKIHHHHHHMAAEIIAVTQQKGGVGKSTIAMHLGAAFHEKGRRVLVIDADGQNTLVHWSSSSADSESGIPFPVVNLAEAGSQIHREIKKFINDYDIIIVDCPPSITEKVSGVVLLAATIAVIPTSSSPADYWSSVGLVKLIQQAQVMNEDLRAVFLLNKTEEKRMLTRELKRALEELGFPLLKTQIPTREAYKQAMALGQTVLQMNDRGAKLAAAEIRACADEIVAMLP
MGSDKIHHHHHHMAAKGKKKNFVLDTNVMLHDYECIEKFEENDIYIPIVSLEELDKFKKGSEQINFNARAFVRRLDEISDQDLFAKGASLGEGLGRIFVKINGQYHTKVKEAFGENKADHRILSIAMTLADEQPNIKTILVTKDVNLRMKARSLGMLVEDYINDKVTRVDLFENAEPEYEGVDGDLIDRIYASKDGIDIDEWELGSKIDPNDCFVMKSERNSVLARYNPFTGKIVRVEKGHYFGIQPRNAEQTFAMHILTDPNVKLIGLTGKAGTGKTLLALAAALSQEQSYKQILLARPIVSLANKDLGFLPGDEKAKVAPYMQPLFDNLNVIKGQLAQNSSELRRLDEMQKTEKLVIEALAYIRGRSVSETIFIVDEAQNLTPHEIKTIITRAGEGSKLIFTGDIEQIDSPYLDAQSNGLAYMIERMKGQPLFAHVNLIKGERSELSELASDLL
MGSDKIHHHHHHMAATSDYDVIVVGGGHNGLTCAGYLARAGKRVLVLERRPIVGGAVCTEEVIPGYKIDVGSSAHIMIHLTPIVRDLELERHGLEYIDMDPYAFYPLPDGSGAIYFYRDVERTCQSIATVSPRDAEAYRRFLDFWTPLNEAVFDVFLNPPSVTRLFGKVASSIPRLPKAEQKVLEVTRRLFTSYAQLIEETFESEAMRAAMTWLAAQSGPPPDEIGAGDFFGWHAMLHYSGAKHPRGGSGMLTQAMARSLKAMGGEVILDAPVRRILVQNGRVQAWKRQTVSAIRPRLLFPTLTC
MGSDKIHHHHHHMADFSNQIVTIKKGLDLPIAGEPRQVIELGAKPSQVAVLGEEFVGLKPTMLVEEGDWVQKGQALFEDKKTPGVLFTAPASGQVVAINRGERRILQSVVIRCDDGENRDGQISFEIHQDIAALARSTVQAQLVKSGLWTALRTRPFSRVPALDSTPAGIFVTAIDTNPLAADPRLIIAEQTEAFKAGLLVLSRLTEGKVYLCQDKGEAIVKEALPQLEVRRFDGVHPAGLVGTHIHFTLPVSLERQVWHIGYQDVIAYGKLFQTGELYTDRIVALGGPSVLNPRLLRTQLGAELSPLVSDDIKPGQNRVVSGSVLSGHTAVGVHDFLGRFHNQVSVLSEDAQHHVLSWVRGGSDKFSITRAVTSRLFGATKLFEFTTHQGGSARAMMAFGQLDRVMPLDILPTLLVRDLVVRDTDEAQALGALELDEEDLALCTFVCPGKYDFGKELRACLDVIEREG
MGSDKIHHHHHHMADRPHAEEGQTAGPAGQPGVAAWLDNQPPKWRPVASAIGSLELMTFFQFVLAAVLMSALPAHGADRIIYLTFDDGPLNGTSNILDVLEAEQVPATLFMVGMHAEAGASNKALVRRAKAMPLVTIGNHSYTHAYNHYRHFYGDTEGVVADMLMANVVLGLKPAVHARLPGRDVFRLPSMSKDDNSLGPAQAGREDPDYEFVAASGFYLYGWDHEWVHKDSGEPVQSVDHLVSEIDHLFGYGHFAKPGKLILLMHDEMFQDGFDGKTKLTDLITALKLRHYAFGTIPNYDH
MGSDKIHHHHHHMAEHIITLVLSGERLDVTTSTPFVVALRDLLYEGDWELLKEDMKKKENIMKEVQTCEKLEKVVHLDETVYEPLIFPEFQEWLREENITPKDFKNVSLKGLYDLALEYADRNLYDIAHDIIKFMLDIDENYAPAYELKGSLLVEQGKIEEGIKFLDKAVEIDPWLVQAYASLGEAYYNLGDYEKAIHYWERELEYNPNDKITYFMITEAYYEMNRKDLAVKTLERLLEIDPDNIPALYQLSQLYRELGNEEKAREMEEKIMNCKPKYPTELEPWARVMLKHGRYKEVAEELEKIVESSPLNTLARLLLVVPYVKLGQIDKAREILDDIGQSNFWYYYGKKEILDELLTEEEKRACGIS
